In article PMC11881899, “Structural insights into promoter-proximal pausing of RNA polymerase II at +1 nucleosome”:

Legend:
[1] = target: RNA polymerase II (RNAPII);DSIF (SPT4/SPT5) (Sus scrofa;human, UniProt A0A8D1DPV6;A0A4X1TVZ5;P19387;O15514;A0A4X1VTX4;P61218;P62487;P52434;P36954;P6287 …, |); experiment: EMSA; 0.1 uM RNAPII, 0.4 uM DSIF; lower mobility than RNAPII-only EC; EMSA: 20 mM Hepes-NaOH pH 7.5, 5 mM MgCl2, 5% glycerol (buffer J); final 75 mM NaCl, 50 mM KOAc, 0.33 uM Zn(OAc)2, 4 uM ZnCl2; 30 min at 4 C; native 3-8% Tris-acetate PAGE; settings: protein: native;recombinant; tags: none;N-His SPT4 (His tag TEV-cleaved); C-Strep SPT5; copies: 1;1;1;1;1;1;1;1;1;1;1;1;1;1; label: Alexa Fluor 647 on primer RNA; template DNA, nontemplate DNA and primer RNA
[2] = target: RNA polymerase II (RNAPII) (Sus scrofa); experiment: EMSA; 0.1 uM RNAPII; RNAPII-only EC; EMSA: 20 mM Hepes-NaOH pH 7.5, 5 mM MgCl2, 5% glycerol (buffer J); final 75 mM NaCl, 50 mM KOAc, 0.33 uM Zn(OAc)2, 4 uM ZnCl2; 30 min at 4 C; native 3-8% Tris-acetate PAGE; settings: protein: native; tags: none; copies: 1;1;1;1;1;1;1;1;1;1;1;1; label: Alexa Fluor 647 on primer RNA; template DNA, nontemplate DNA and primer RNA
[3] = target: RNA polymerase II (RNAPII);DSIF (SPT4/SPT5);NELF 3E mutant (Sus scrofa;human;human, UniProt A0A8D1DPV6;A0A4X1TVZ5;P19387;O15514;A0A4X1VTX4;P61218;P62487;P52434;P36954;P6287 …, ||K23E;K27E;K34E); experiment: EMSA; 0.1 uM RNAPII, 0.4 uM DSIF, 0.4 uM NELF 3E; complex forms similar to wild type; EMSA: 20 mM Hepes-NaOH pH 7.5, 5 mM MgCl2, 5% glycerol (buffer J); final 75 mM NaCl, 50 mM KOAc, 0.33 uM Zn(OAc)2, 4 uM ZnCl2; 30 min at 4 C; native 3-8% Tris-acetate PAGE; settings: protein: native;recombinant;recombinant; tags: none;N-His SPT4 (His tag TEV-cleaved); C-Strep SPT5;NELF-C C-His6; NELF-E N-FLAG; copies: 1;1;1;1;1;1;1;1;1;1;1;1;1;1;1;1;1;1; label: Alexa Fluor 647 on primer RNA; template DNA, nontemplate DNA and primer RNA
[4] = target: RNA polymerase II (RNAPII);DSIF (SPT4/SPT5);NELF wild type (NELF-A/B/C/E) (Sus scrofa;human;human, UniProt A0A8D1DPV6;A0A4X1TVZ5;P19387;O15514;A0A4X1VTX4;P61218;P62487;P52434;P36954;P6287 …, ||); experiment: EMSA; 0.1 uM RNAPII, 0.4 uM DSIF, 0.4 uM NELF; complete shift; EMSA: 20 mM Hepes-NaOH pH 7.5, 5 mM MgCl2, 5% glycerol (buffer J); final 75 mM NaCl, 50 mM KOAc, 0.33 uM Zn(OAc)2, 4 uM ZnCl2; 30 min at 4 C; native 3-8% Tris-acetate PAGE; settings: protein: native;recombinant;recombinant; tags: none;N-His SPT4 (His tag TEV-cleaved); C-Strep SPT5;NELF-C C-His6; NELF-E N-FLAG; copies: 1;1;1;1;1;1;1;1;1;1;1;1;1;1;1;1;1;1; label: Alexa Fluor 647 on primer RNA; template DNA, nontemplate DNA and primer RNA

Measured: binding result

B1: DNA/RNA scaffold (EMSA) (mixed)
RNA: UUUUUAUCGAGAGGUAC
DNA 1: CCAAGATGTCAACTCTACCGATAAGCAGACGTACCTCTCGAT
DNA 2: CTGCTTATCGGTAGAGTTGACATCTTGG
binds: all assays above
